Data published in patent US20150253341A1.

Molecular target: all six recombinant human Tau isoforms
Test: immunoaffinity purification on 13A6 beads, trypsin digestion and LC-MS/MS, with against without purification

B1: mouse monoclonal anti-Tau antibody clone 13A6 (antibody, V domains shown)
VH: EVQLQQSGAELVRPGASVKLPCTASGFNIKDDYMNWVMQRPERGLEWIGWIDPENGDTAYASKFQGKATMTADTSSNTAYLQLSSLTSEDTAVYYCTSGGRFDYWGQGTSLTVSS
VL: DVLMTQTPLSLPVSLGDQASISCRSSQSIVHSNGSTYLEWYLQKPGQSPKLLIYKVSNRFSGVPDRFSGSGSGTDFTLKINRVEAEDLGVYYCFQGSHVPWTFGGGTKLEIK
percent recovery: 60 to 75%
